Experimental data as given in the supplement of paper PMC10065799, “High-throughput profiling of sequence recognition by tyrosine kinases and SH2 domains using bacterial peptide display” (eLife, 2023).

Assays:
Fyn = Fyn (UniProt P06241); test: phosphorylation enrichment, bacterial display (enrichment ratio); higher = better substrate or ligand; peptides without Tyr show the background
Jak2 = Jak2 (UniProt O60674); test: as above
Hck = Hck (UniProt P08631); test: as above
FGFR1 = FGFR1 (UniProt P11362); test: as above
Sequence of FGFR1 (P11362 whole entry, looked up): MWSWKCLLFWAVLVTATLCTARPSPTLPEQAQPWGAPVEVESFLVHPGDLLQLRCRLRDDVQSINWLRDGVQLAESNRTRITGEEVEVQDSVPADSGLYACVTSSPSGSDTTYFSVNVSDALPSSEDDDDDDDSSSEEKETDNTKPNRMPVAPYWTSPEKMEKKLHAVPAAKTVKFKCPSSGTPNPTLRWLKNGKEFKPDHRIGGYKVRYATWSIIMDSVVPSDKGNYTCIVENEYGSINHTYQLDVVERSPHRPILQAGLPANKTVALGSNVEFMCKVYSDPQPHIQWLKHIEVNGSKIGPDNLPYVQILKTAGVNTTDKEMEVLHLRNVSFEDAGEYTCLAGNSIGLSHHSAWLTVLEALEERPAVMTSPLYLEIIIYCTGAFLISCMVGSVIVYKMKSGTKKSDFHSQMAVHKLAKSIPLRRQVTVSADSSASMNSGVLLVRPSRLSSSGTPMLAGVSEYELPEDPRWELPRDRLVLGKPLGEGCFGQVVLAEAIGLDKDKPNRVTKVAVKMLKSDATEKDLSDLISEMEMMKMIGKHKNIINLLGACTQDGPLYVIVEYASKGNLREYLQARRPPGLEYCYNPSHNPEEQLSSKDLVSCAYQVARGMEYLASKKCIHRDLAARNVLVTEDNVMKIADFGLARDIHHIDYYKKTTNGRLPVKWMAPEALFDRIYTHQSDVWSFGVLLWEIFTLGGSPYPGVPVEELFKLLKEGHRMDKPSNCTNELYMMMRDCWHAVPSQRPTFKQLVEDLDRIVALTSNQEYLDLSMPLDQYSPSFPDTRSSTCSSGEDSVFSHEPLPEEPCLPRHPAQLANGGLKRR

EPHB2 = EPHB2 (UniProt P29323); test: as above
Sequence of EPHB2 (P29323 whole entry, looked up): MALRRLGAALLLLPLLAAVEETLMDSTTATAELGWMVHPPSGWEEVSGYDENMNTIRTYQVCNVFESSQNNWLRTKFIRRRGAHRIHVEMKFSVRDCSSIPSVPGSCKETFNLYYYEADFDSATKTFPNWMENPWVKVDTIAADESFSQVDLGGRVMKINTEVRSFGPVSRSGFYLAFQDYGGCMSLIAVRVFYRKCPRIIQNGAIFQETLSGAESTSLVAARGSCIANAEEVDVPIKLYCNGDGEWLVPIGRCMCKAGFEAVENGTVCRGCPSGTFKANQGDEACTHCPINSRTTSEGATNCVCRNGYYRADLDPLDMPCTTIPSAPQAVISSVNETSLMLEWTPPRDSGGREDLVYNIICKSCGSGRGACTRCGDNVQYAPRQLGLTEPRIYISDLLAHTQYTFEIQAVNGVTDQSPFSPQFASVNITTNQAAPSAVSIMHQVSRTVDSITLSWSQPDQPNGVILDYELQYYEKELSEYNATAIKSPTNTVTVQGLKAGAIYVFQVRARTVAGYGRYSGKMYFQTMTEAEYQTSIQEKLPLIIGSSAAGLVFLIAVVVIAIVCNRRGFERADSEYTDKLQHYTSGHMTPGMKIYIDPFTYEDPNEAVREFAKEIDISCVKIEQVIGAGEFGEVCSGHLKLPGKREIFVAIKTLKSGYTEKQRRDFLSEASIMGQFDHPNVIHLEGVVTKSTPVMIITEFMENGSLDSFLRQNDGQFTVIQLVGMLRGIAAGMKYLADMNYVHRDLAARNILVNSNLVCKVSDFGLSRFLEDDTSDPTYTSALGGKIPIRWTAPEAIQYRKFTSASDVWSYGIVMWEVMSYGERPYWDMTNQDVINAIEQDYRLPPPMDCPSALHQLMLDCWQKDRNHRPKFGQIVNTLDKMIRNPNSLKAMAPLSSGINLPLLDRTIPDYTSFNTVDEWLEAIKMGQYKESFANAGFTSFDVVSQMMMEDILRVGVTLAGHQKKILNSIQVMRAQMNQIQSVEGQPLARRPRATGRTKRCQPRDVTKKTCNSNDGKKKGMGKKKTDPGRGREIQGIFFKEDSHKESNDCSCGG

c-Abl (mouse) = test: as above
AncSZ = test: as above
EPHB1 = EPHB1 (UniProt P54762); test: as above
Fes = Fes (UniProt P07332); test: as above
Sequence of Fes (P07332 whole entry, looked up): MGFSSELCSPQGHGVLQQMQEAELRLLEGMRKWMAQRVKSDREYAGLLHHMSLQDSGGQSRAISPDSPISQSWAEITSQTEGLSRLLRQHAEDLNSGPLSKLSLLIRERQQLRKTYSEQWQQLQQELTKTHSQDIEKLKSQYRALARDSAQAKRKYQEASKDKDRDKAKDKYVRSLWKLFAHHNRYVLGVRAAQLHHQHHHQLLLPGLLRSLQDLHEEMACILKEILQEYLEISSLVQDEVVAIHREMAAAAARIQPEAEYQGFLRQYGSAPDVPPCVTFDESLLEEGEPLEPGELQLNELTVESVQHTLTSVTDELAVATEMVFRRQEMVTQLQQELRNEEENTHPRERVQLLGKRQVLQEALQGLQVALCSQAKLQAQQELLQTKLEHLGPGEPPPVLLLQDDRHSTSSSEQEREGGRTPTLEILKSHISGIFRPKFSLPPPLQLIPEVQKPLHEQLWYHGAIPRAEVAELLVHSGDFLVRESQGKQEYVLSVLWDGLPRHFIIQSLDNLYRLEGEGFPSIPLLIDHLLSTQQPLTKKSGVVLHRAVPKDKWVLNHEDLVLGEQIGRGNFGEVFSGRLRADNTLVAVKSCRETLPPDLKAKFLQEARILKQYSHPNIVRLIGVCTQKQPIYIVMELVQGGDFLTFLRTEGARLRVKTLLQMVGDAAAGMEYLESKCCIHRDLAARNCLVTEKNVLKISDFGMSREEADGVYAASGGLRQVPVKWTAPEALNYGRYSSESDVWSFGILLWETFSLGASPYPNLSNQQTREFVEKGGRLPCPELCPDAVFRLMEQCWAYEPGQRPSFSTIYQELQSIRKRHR

MERTK = MERTK (UniProt Q12866); test: as above
Sequence of MERTK (Q12866 whole entry, looked up): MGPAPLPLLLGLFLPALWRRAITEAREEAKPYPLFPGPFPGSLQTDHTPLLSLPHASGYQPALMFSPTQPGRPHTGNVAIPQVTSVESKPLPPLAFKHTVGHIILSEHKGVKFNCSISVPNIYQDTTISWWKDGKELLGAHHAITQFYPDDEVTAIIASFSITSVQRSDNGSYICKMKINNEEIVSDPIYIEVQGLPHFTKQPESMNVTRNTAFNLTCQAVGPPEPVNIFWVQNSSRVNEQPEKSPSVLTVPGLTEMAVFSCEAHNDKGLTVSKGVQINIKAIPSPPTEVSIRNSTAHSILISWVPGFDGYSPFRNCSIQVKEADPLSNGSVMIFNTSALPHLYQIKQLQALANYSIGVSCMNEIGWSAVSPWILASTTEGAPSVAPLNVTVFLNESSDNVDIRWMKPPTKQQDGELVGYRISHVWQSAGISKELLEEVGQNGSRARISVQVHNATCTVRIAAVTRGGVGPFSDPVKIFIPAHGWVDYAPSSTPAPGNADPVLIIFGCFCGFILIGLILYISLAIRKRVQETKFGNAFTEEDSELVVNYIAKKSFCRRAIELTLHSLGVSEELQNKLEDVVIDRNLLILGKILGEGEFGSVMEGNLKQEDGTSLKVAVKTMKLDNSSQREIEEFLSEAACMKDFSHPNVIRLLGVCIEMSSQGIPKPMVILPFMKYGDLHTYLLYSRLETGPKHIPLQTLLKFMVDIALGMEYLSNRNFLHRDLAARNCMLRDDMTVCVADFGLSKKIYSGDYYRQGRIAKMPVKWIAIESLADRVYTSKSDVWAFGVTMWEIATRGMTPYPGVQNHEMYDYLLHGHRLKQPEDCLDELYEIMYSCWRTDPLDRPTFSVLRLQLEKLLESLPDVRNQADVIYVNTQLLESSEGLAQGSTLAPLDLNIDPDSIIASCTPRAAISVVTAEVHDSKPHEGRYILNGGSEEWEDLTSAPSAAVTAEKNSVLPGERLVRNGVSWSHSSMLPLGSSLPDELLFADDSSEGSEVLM

c-Src = test: as above
FGFR3 = FGFR3 (UniProt P22607); test: as above
Sequence of FGFR3 (P22607 whole entry, looked up): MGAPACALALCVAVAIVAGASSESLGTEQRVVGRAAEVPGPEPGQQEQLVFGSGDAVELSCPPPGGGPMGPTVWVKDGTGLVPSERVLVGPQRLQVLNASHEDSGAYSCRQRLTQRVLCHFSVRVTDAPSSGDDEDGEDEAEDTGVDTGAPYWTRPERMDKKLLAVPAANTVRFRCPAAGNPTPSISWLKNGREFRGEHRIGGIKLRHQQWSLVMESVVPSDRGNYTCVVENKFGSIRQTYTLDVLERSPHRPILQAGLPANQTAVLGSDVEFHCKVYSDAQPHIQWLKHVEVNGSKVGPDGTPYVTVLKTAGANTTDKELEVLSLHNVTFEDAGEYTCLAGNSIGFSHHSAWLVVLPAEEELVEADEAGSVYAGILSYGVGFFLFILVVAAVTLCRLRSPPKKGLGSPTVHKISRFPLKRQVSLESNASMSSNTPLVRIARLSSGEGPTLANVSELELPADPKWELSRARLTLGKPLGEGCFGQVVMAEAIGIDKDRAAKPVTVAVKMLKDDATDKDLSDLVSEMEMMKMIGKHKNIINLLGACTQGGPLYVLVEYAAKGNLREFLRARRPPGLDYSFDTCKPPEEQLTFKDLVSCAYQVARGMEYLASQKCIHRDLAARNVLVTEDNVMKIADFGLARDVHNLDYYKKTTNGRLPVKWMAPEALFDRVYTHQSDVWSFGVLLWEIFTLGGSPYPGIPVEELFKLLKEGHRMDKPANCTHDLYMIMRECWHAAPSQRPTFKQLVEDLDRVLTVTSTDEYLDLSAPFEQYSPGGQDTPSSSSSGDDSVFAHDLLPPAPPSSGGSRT

Fer (mouse) = test: as above
c-Src SH2 = test: SH2 binding enrichment of the phosphorylated peptide, bacterial display (enrichment ratio); higher = better substrate or ligand; peptides without Tyr show the background
SHP2-C SH2 = test: as above
Grb2 SH2 = Grb2 SH2 (UniProt P62993); test: as above
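Throughout, for SH2 binding enrichment of the phosphorylated peptide, bacterial display: peptide library displayed on the E. coli surface as eCPX fusions, selected cells deep-sequenced, score is each peptide's frequency after selection divided by its frequency in the input.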
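Throughout, for phosphorylation enrichment, bacterial display: 11-residue human phosphosite peptides and single-mutation variants displayed on the E. coli surface, counted by deep sequencing, each peptide's frequency after selection divided by its frequency in the unselected input library; frequency after pTyr selection over input frequency; kinase dosed for 20-30% of maximal phosphorylation in three min.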

Sequence of Fyn (P06241 whole entry, looked up): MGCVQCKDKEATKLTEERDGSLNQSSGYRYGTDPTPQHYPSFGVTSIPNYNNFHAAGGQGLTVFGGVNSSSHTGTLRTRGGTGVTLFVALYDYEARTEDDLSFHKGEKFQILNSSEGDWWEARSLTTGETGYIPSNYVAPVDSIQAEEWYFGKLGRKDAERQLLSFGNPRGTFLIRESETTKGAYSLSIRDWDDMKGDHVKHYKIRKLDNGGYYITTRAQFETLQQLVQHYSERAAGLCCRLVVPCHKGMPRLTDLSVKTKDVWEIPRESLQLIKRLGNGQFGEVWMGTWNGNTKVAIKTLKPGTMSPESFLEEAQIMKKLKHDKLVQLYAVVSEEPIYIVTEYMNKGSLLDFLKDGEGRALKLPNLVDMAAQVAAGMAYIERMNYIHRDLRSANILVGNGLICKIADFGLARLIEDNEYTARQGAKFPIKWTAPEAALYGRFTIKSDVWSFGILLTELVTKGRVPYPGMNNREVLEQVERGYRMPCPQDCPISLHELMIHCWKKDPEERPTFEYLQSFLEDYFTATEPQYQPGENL

SH2 binding enrichment (c-Src SH2)	SH2 binding enrichment (SHP2-C SH2)	SH2 binding enrichment (Grb2 SH2)	Sequence	phosphorylation enrichment (Fyn)	phosphorylation enrichment (Jak2)	phosphorylation enrichment (Hck)	phosphorylation enrichment (FGFR1)	phosphorylation enrichment (EPHB2)	phosphorylation enrichment (c-Abl (mouse))	phosphorylation enrichment (AncSZ)	phosphorylation enrichment (EPHB1)	phosphorylation enrichment (Fes)	phosphorylation enrichment (MERTK)	phosphorylation enrichment (c-Src)	phosphorylation enrichment (FGFR3)	phosphorylation enrichment (Fer (mouse))
0.557	1.03	0.956	REAAAYLHGRL [AGXT_Y297]	0.543	1	0.479	0.671	0.571	1.04	0.891	0.322	1.03	0.584	0.655	0.595	0.502
0.517	1.27	0.94	DKATEYIQYVR [MAX_Y70_M74V]	0.535	0.763	0.552	0.506	0.582	0.582	0.983	0.519	0.976	0.425	0.493	0.507	0.43
1.79	1.29	1.23	GGKYSYLKVGH [GRM3_Y480]	0.497	0.604	0.388	0.404	0.394	0.666	0.678	0.344	0.616	0.513	0.4	0.536	0.503
1.65	0.873	0.934	CTTIHYNYMSN [TP53_Y234_C238S]	0.396	0.756	0.434	0.499	0.594	0.501	0.793	0.503	0.844	0.502	0.399	0.629	0.664
0.428	0.646	0.684	SWKRRYFLLWA [APBB1IP_Y331_R335W]	0.576	0.571	0.497	0.479	0.5	0.478	0.686	0.443	0.591	0.59	0.661	0.545	0.433
0.379	0.352	0.705	INSLKYAFNVS [EIF2B5_Y583_I587V_YF]	0.478	0.771	0.51	0.44	0.43	0.593	0.77	0.443	0.85	0.447	0.464	0.584	0.452
0.425	0.703	0.662	DPHKIFEFVNS [IRF3_Y107_Y107F]	0.606	0.615	0.607	0.643	0.539	0.431	0.791	0.54	0.88	0.412	0.417	0.596	0.771
0.434	0.525	0.747	QELRRYLKSGI [MICA_Y194_V199I]	0.482	0.335	0.496	0.429	0.281	0.402	0.489	0.332	0.458	0.406	0.294	0.313	0.534
0.511	0.616	0.804	VGTKRYMAPEV [ACVRL1_Y375]	0.361	0.637	0.407	0.413	0.428	0.532	0.611	0.351	0.61	0.389	0.373	0.446	0.395
0.367	0.602	0.601	KIDAKYKKKIE [WDR19_Y1230]	0.308	0.594	0.408	0.368	0.373	0.631	0.698	0.27	0.891	0.418	0.346	0.368	0.401
0.896	5.25	1.23	NFDRVYIYHLR [MYOF_Y1137]	0.858	1.03	0.782	0.575	0.618	0.718	1.19	0.593	1.23	0.528	1.01	0.755	0.612
0.48	0.706	0.897	LSNFNYEQRGA [API5_Y497_G493S]	1.14	1.41	0.509	0.918	1.15	1.11	1.21	0.796	1.51	0.796	1.14	1.02	0.651
0.556	0.909	0.76	ERMKVYVPIGF [EPHX1_Y393_T396I]	1.13	0.597	0.622	0.412	0.497	0.543	0.67	0.623	0.742	0.478	0.907	0.538	0.425
0.482	0.575	0.714	SHLSSYTTHPQ [NIPBL_Y195_P192L]	0.451	0.663	0.44	0.435	0.393	0.534	0.569	0.389	0.726	0.399	0.419	0.591	0.392
0.625	0.607	0.932	FRIDHYLGKEM [G6PD_Y202_YF]	0.427	0.675	0.49	0.455	0.41	0.54	0.808	0.448	1.63	0.371	0.32	0.671	0.41
0.893	0.842	1.39	LVMFISAIFGM [SCN1A_Y1684_Y1684S]	0.788	1.77	0.804	1.15	1.07	1.36	1.69	1.1	2.05	0.722	0.922	1.46	1.33
0.43	0.664	0.887	KDYETYQPFQN [CTNND2_Y1157]	6	0.883	6.07	0.686	7.67	0.846	1.72	3.29	1.17	0.514	4.83	0.801	1.47

SH2 binding enrichment (c-Src SH2)	SH2 binding enrichment (SHP2-C SH2)	SH2 binding enrichment (Grb2 SH2)	Sequence	phosphorylation enrichment (Fyn)	phosphorylation enrichment (Jak2)	phosphorylation enrichment (Hck)	phosphorylation enrichment (FGFR1)	phosphorylation enrichment (EPHB2)	phosphorylation enrichment (c-Abl (mouse))	phosphorylation enrichment (AncSZ)	phosphorylation enrichment (EPHB1)	phosphorylation enrichment (Fes)	phosphorylation enrichment (MERTK)	phosphorylation enrichment (c-Src)	phosphorylation enrichment (FGFR3)	phosphorylation enrichment (Fer (mouse))
0.805	0.662	1.11	ECIEFYELDKK [PMM2_Y145_R141C]	0.501	0.977	0.572	0.569	0.596	0.825	1.22	0.579	1.13	0.485	0.999	0.776	0.589
0.565	0.866	0.742	TSGVVYKARNK [CDK2_Y19_Y15S]	0.359	0.427	0.462	0.354	0.358	0.51	0.53	0.392	0.661	0.479	0.516	0.447	0.519
0.847	0.941	0.965	VYYYSYLLKNH [PTEN_Y180]	1.12	2.14	1.74	4.67	1.07	2.84	1.48	1.72	1.33	3.89	1.63	3.68	0.82
3.83	0.678	0.728	EYDRLYEEYTR [PIK3R1_Y467]	7.8	1.21	6.46	0.826	7	1.34	2.49	4.27	1.43	2.8	5.99	0.889	6.02
2.9	0.487	0.885	EIHTQYEAMAS [GFAP_Y242_R239H]	0.514	0.642	0.539	0.527	0.566	0.42	0.712	0.386	0.753	0.428	0.383	0.491	0.677
0.748	0.767	0.881	LGRTRYQHVTG [MIPEP_Y510]	0.488	0.559	0.309	0.477	0.393	0.564	0.694	0.439	0.723	0.499	0.445	0.428	0.377
0.948	0.686	1.08	KSMSVYCTPNK [ATP2A2_Y497]	0.699	0.581	1	0.473	0.702	1.38	1.13	0.696	0.94	0.653	0.455	0.632	0.509
0.39	0.403	0.928	QRASDYYSQQM [GBP6_Y333_A331S]	0.574	0.805	0.788	1.36	0.589	0.486	0.825	0.66	0.754	0.558	0.58	1.22	0.453
0.81	0.986	0.967	TNIKRYHIAKV [HARS1_Y150]	0.379	0.43	0.264	0.301	0.322	0.375	0.408	0.301	0.553	0.358	0.348	0.328	0.278
18.4	3.5	24.5	GHLYANDWISI [BEST1_Y227_Y227N]	0.734	0.878	0.575	0.609	0.619	0.587	0.819	0.778	0.871	3.32	0.683	0.674	0.527
0.581	0.516	0.766	EEQKKYFNATK [SCN5A_Y1494_M1498T_YF]	0.34	0.6	0.379	0.49	0.479	0.459	0.607	0.356	0.729	0.269	0.377	0.582	0.366
0.64	0.653	1.06	HCEDGYPGGSD [CTNND1_Y221_Y217C]	0.817	1.34	0.714	0.664	0.743	1.35	1.44	1.03	1.81	0.626	0.514	1.15	0.672
0.765	0.608	0.776	GAAMLYYPSVS [GPR143_Y177]	0.747	2.6	1.46	4.07	1.66	0.941	0.763	1.5	0.783	4.88	1.11	3.51	0.63
0.584	0.749	0.906	HHTDEYEYDEL [TGM1_Y134]	1.01	1.19	0.943	1.02	0.904	1.08	2.01	1.02	1.59	0.687	0.916	1.05	0.958
4.23	0.721	0.95	LHVGFYESDVM [A2M_Y708_R704H]	0.691	1.34	0.743	0.889	1.14	0.761	1.18	1.41	1.58	1.15	0.676	1.21	1.9
1.54	0.638	0.807	PLQKIYNYNVL [SLC4A1_Y553_T552I]	0.409	1.05	0.564	0.514	1.05	0.748	0.585	0.773	1	1.09	1.32	1.04	0.582
